# Test results reported in patent US20210009686A1 (BEIJING XUANYI PHARMASCIENCES, published 2021).
# Where a chain is given by its changes, count along the chain named.
# B1: hybridoma clone 5-K4-B (antibody, V domains shown)
# VH: EVQLQQSGPELVKPGASVKMSCKASGYTFISYLIHWVKQKPGQGLEWIGYINPYNDGTKYNEKFKGKATLTSDKSSSTASMEFSSLTSEDSAVYYCTRGDFWGQGTTLTVSS
# VL: DIVMTQSPSSLTVTAGEKVTMSCKSSQSLLNSGNQKNYLTWYQQKPGQPPKLLIYWASIRASGVPDRFTGSGSGTDFTLTISSVQAEDLALYYCLNDYSFPLTFGAGTKLELK
# notes: also called 5K41B
# B2: hybridoma clone 7-G17-A (antibody, V domains shown)
# VH: EVQLVESGGGLVKPGGSRKLSCAVSGFTFSDYGMYWVRQAPEKGLEWVAYISSGSSTIYYADTVKGRFTMSRDNAKNTLFLQMTSLRSEDTAMYYCARIARGNAMDYWGQGTSVTVSS
# VL: B1 VL with A15P, L30F, K36R, T40A, I59T, A61E, L91V, L95Q, S99F, F100Y
# B3: hybridoma clone 2-F13-A (antibody, V domains shown)
# VH: B1 VH with I30T, S31N, L33V, I34M, Y54F, N55D, S80Y, F83L, F101Y
# VL: B1 VL with S22T, I59T, A61D, T69R, L91V
# B4: hybridoma clone 6-M11-A (antibody, V domains shown)
# VH: EVQLVESGGGSVKPGGSRKLSCAASGFTFSDYGMHWVRQAPEKGLEWVAYISSGSNTFYYTDTVKGRFTISRDNAKNTLFLQMTGLRSEDTAMYYCARFTRGNALDYWGQGTSVTVSS
# VL: B1 VL with I54L, I59T, A61E, A90T, L91V, L95Q, D97A, F100Y
# B5: hybridoma clone 10-J10-B (antibody, V domains shown)
# VH: QVQLQQSGAELARPGASVKLSCKASGYTFTSWSISWVKQRTGQGLEWIGEIYPRSDNIHYNEKFKGKATLTADKSSSTVYMQLSSLTSEDSAVYFCARAYYGNSFAYWGQGTLVTVSA
# VL: DIVMTQSPSSLTVTAGEKVTMTCKSSQILLNSGNQKNYLTWYQQKPGQPPKLLIYWASTRESGVPDRFTGSGSGTDFSLTISSVQAEDLAIYYCQNDYYYPFTFGSGTKLEIK
# B6: hybridoma clone 2-D22-A (antibody, V domains shown)
# VH: B2 VH with V24A, Y35H, V48I, T57S, N77K, M83T, S117T
# VL: B1 VL with K36R, T40A, I59T, A61E, L91V, L95Q, F100Y
# B7: hybridoma 1-B13-A (antibody, V domains shown)
# VH: B5 VH with S31V, I34M, E46Q, R54K, D56G, I58T, S117P
# VL: B5 VL with S10P, V19A, T22S, I28S, K36R, I91V, Y98F, Y99I
# B8: hybridoma clone 9-M7-A (antibody, V domains shown)
# VH: EVQLVESGGALVKPGGSLKLSCAASGFTFSNYAMSWIRQTPEKRLEWVATIIIGGTYTYYPDSVKGRFTISRDNAKNTLYLQMSSLRSEDTALYYCARQVYGNSFAYWGQGTLVTVSA
# VL: B5 VL with T22S, I28S, S78T, I91V, D97N, Y99I
# B9: hybridoma clone 9-A13-B (antibody, V domains shown)
# VH: B2 VH with V24A, T28S, Y35H, Y50H, V64M, M70I, I99F, A104T
# VL: B1 VL with I59T, A61E, A90T, L91V, L95Q, D97G, F100Y
# B10: hybridoma clone 9-N14-A (antibody, V domains shown)
# VH: B2 VH with V24A, V48L, S56N, T57N, M70I, T115I
# VL: B1 VL with I59T, A61E, L91V, L95Q, S99I, F100Y, E111G
# B11: hybridoma clone 10-K12-A (antibody, V domains shown)
# VH: B2 VH with V24A, Y35F, A49G, T57N, M70I
# VL: B1 VL with I59T, A61E, L91I, L95Q, S99F, F100Y
# B12: hybridoma clone 7-E20-A (antibody, V domains shown)
# VH: B2 VH with V24A, Y35H, Y59H, A61V, V64M, M70I, I99F, A104T, M105L
# VL: B1 VL with L30F, S32T, I59T, A61E, A90T, L91V, L95Q, D97G, F100Y
# B13: hybridoma clone 9-B11-A (antibody, V domains shown)
# VH: B2 VH with V24A, Y35H, T57P, M70I, I99F
# VL: B1 VL with I59T, A61D, L91V, L95Q, D97N, S99Y, F100Y, K109N
# B14: hybridoma clone 6-C5-A (antibody, V domains shown)
# VH: B2 VH with V24A, Y35H, V64M, M70I, A97T, I99F, A104T
# VL: B1 VL with K36R, Q44R, I59T, A61E, A90T, L91F, L95Q, D97G, F100Y
# B15: hybridoma clone 7-A21-A (antibody, V domains shown)
# VH: B2 VH with V24A, V48L, S56N, M70I
# VL: B1 VL with I59T, A61E, L91V, L95Q, S99I, F100Y, E111G
# B16: hybridoma clone 1-M5-A (antibody, V domains shown)
# VH: B8 VH with P14S, K19R, Y32N, L93F, T115S
# VL: B5 VL with T22S, I28S, S78T, I91V, D97N, Y99F
# B17: hybridoma clone 9-C6-A (antibody, V domains shown)
# VH: B2 VH with V24A, Y35H, V64M, M70I, I99F, A100V, A104S
# VL: B1 VL with M21L, G47R, I59T, A61E, S83N, A90T, L91V, L95Q, D97A, F100Y
# B18: hybridoma clone 5-J22-A (antibody, V domains shown)
# VH: B2 VH with V24A, Y35H, Y50H, S56N, T57I, Y59H, V64L, M70I, I99F, A104T
# VL: B1 VL with I59T, A61E, A90T, L91V, L95Q, D97A
# B19: hybridoma clone 7-B15-A (antibody, V domains shown)
# VH: B2 VH with V24A, Y35H, V48I, Y50H, V64M, M70I, I99F, A100V, M105L
# VL: B1 VL with S22N, I59T, A61E, A90T, L91V, L95Q, D97G, F100Y
# B20: hybridoma clone 4-N1-A (antibody, V domains shown)
# VH: B2 VH with E6N, V24A, Y35H, V64M, M70I, I99F, A100V, A104S
# VL: B1 VL with I59T, A61E, A90T, L91V, L95Q, D97A, F100Y
# B21: hybridoma clone 10-P2-A (antibody, V domains shown)
# VH: EVQLQQSGPALVKPGASVKMSCKASGYSFTGYNIHWVKQSHGKSLEWIGYIDPNNGVTYSNQKFKGKATLTVDKSSSTAYMQLNSLTSEDSAVYYCARPYYGNSFDYWGQGTTLTVSS
# VL: DIVMTQSPSSLTVTAGEKVTMSCKSSQSLLNSGNLRNYLTWYQQKPGQPPKLLIYWASTRESGVPDRFTGSGSGTDFTLTINSVQAEDLALYFCQDGYFYPFPFGSGTKLVIK
# B22: hybridoma clone 10-P12-A (antibody, V domains shown)
# VH: EIQLQQSGAELVKPGTSVKISCKASGYSFTGYNMNWVKQSHGKSLEWIGNINPYYSNTNYNQRFKGKATLTVDKSSSTAYMQLNSLTSEDSAVYYCARHVRGNSFDYWGQGTTLTVSS
# VL: DIVMTQSPSSLTVTAGERVTVGCKSRQSLFNSENQKNYLSWYQQKPGQPPKLLLYWTSTRESGVPERFTGSGSGTDFTLTISSVQAEDLAVYYCQNNYIYPFTFGSGTKLEIK
# B23: hybridoma clone 10-L9-A (antibody, V domains shown)
# VH: B2 VH with V24A, Y35H, V48I, S52N, M70I, Y94F, I99F, A104V, M105L
# VL: DIVMTQSPSSLTVTAGEKVTMSCRSSQSLLNSGNQRNYLTWYQQKPGHPPKLLIYWASTRESGVPDRFTGSGSGTDFTLTISGVQAEDLAVYYCQNGYSYPLTFGAGTKLEVK
# Target: T1, claudin 18.1 (CLDN18.1) (human, UniProt P56856 1-261)
# T1 construct: also called HEK293-CLDN18.1
# T1 sequence (P56856 whole entry): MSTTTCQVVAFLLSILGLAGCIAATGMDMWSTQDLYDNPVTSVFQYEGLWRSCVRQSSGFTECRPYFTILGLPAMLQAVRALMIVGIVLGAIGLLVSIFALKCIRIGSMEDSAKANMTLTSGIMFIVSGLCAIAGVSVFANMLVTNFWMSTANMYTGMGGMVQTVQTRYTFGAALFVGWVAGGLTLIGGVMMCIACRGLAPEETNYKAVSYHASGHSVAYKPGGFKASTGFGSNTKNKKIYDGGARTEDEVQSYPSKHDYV
# Experiment: FACS, hybridoma supernatant on HEK293-CLDN18.1
# Source text: (§1) Ten days after fusion, hybridoma supernatants were screened by FACS against HEK293-CLDN18.2, HEK293-CLDN18.1 and HEK293.
row,Binder,MFI
1,B1,126000
2,B2,12900
3,B3,232000
4,B4,8970
5,B5,20400
6,B6,6310
7,B7,10200
8,B8,7740
9,B9,6930
10,B10,10600
11,B11,7910
12,B12,7460
13,B13,7630
14,B14,8130
15,B15,6450
16,B16,7950
17,B17,9700
18,B18,6390
19,B19,11200
20,B20,12100
21,B21,10900
22,B22,20100

# Target: T2, claudin 18.2 (CLDN18.2) (human)
# T2 construct: also called Claudin 18 isotype 2; HEK293-CLDN18.2
# Experiment: FACS, hybridoma supernatant on HEK293-CLDN18.2;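 also: flow cytometry of hybridoma supernatants taken 10 days after fusion, applied to HEK293 cells stably expressing CLDN18.2, with MFI standing for mean fluorescence intensity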
# Source text: as §1
row,Binder,MFI
1,B23,127000
2,B1,70800
3,B2,136000
4,B3,138000
5,B4,60500
6,B5,136000
7,B6,58300
8,B7,61900
9,B8,70300
10,B9,61400
11,B10,64000
12,B11,48900
13,B12,72600
14,B13,54100
15,B14,94700
16,B15,47000
17,B16,59200
18,B17,52400
19,B18,46100
20,B19,105000
21,B20,80100
22,B21,58900
23,B22,131000

# Target: T1, claudin 18.1 (CLDN18.1)
# Experiment: in-cell ELISA, hybridoma supernatant on HEK293-CLDN18.1 cells
# Procedure: (§2) In-cell ELISAs were performed as follows: 5×10³ HEK293-CLDN18.2 cells were seeded per well in a poly-L-lysine-coated 96-well plate. The plates were then incubated at 37° C. with 5% CO₂ for 2 days. Following incubation, culture media was removed from each well, and the HEK293-CLDN18.2 cells were blocked with 200 μl blocking buffer (3% BSA/PBS (pH 7.4)) per well for 1 hour at room temperature. Each hybridoma supernatant was incubated with cells at room temperature for 1 hour. Cells were gently washed 3 times with 200 μl PBS (pH 7.4) containing 1 mM Ca²⁺ and 0.5 mM Mg²⁺. Next, cells were incubated with 100 μl of HRP-conjugated goat anti-human IgG (H+L) antibody for 1 hour at room temperature. Following the incubation, the cells were washed three times with 200 μl PBS (pH 7.4) containing 1 mM Ca²⁺ and 0.5 mM Mg²⁺. 100 μl of 1-Step™ Ultra TMB-ELISA Substrate was added to each well, and the reactions were stopped by addition of 50 μl of stop solution. OD₄₅₀ was measured using CLARIOStar microplate reader. The in-cell ELISAs were repeated for each clone using HEK293-CLDN18.1 cells.
row,Binder,OD450/µg IgG [OD450/µg IgG]
1,B1,139
2,B2,6.7
3,B3,13.3
4,B4,1.55
5,B5,3.05
6,B6,2.22
7,B8,0.79
8,B9,3.34
9,B10,3.14
10,B11,2.11
11,B12,2.23
12,B13,2.18
13,B14,1.04
14,B15,2.51
15,B16,1.11
16,B17,3.82
17,B18,2.16
18,B19,1.32
19,B20,2.87
20,B21,0.34
21,B22,4.3

# Target: T2, claudin 18.2 (CLDN18.2)
# Experiment: in-cell ELISA, hybridoma supernatant on HEK293-CLDN18.2 cells
# Procedure: as §2
row,Binder,OD450/µg IgG [OD450/µg IgG]
1,B23,9.52
2,B1,88.2
3,B2,30.8
4,B3,6.49
5,B4,11.4
6,B5,102
7,B6,16.8
8,B8,19.2
9,B9,48.6
10,B10,34.4
11,B11,12.9
12,B12,20.4
13,B13,25.9
14,B14,12.2
15,B15,18.4
16,B16,21.1
17,B17,28.3
18,B18,15.4
19,B19,13.2
20,B20,18
21,B21,4.71
22,B22,29.4
